According to patent US20230406924A1:

Target: Mouse TREM-1 analyte (in house, his tagged) (mouse) (UniProt Q9JKE2)
Assay: SPR (Biacore T200, 25 C), MAB1187 captured on anti rat Fc, his tagged mouse TREM-1 as analyte, 1:1 model

Sequence of UniProt Q9JKE2 (Q9JKE2 21-202 limits assumed): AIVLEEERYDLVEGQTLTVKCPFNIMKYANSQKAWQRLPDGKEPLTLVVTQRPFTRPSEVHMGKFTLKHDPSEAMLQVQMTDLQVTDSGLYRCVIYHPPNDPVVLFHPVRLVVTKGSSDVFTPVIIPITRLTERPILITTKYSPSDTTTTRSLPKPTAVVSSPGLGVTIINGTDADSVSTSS

With “MAB1187, anti-mouse TREM1 monoclonal antibody (R&D Systems, clone 174031)” as the substance, how does the Kd read?
Its Kd is 26 nM.

And the koff?
The koff was 0.0051 s⁻¹.

What about the kon of the same substance?
Its kon is 200000 M⁻¹ s⁻¹.
